The target in assay [1] is receptor on the rat intestine surface that binds the C-tail of BAL (CT-receptors).
Assay [2] addresses receptor on the mouse small intestine surface that binds the C-tail of BAL (CT receptor). Nature of the assay: 125I-labelled protein retained in ligated mouse small intestine segments after washing; mean of 3 experiments.
In assay [3] the target is receptor on the rat intestine surface that binds the C-tail of BAL (CT-receptors). This is another data set of the same source.
The target is the same in assay [4]. The source holds these as a separate data set.

Take “rat endogenous intestinal BAL (from UniProt P07882) (enzyme)”: the cholesterol uptake of rat intestine after removal of bound BAL with EGTA in assay [1] is 16 % of control.

B1: recombinant truncated form of bile salt-activated lipase (T-BAL, residues 1-538 lacking the carboxy terminal end) (enzyme)
chain: AKLGAVYTEGGFVEGVNKKLGLLGDSVDIFKGIPFAAPTKALENPQPHPGWQGTLKAKNFKKRCLQATITQDSTYGDEDCLYLNIWVPQGRKQVSRDLPVMIWIYGGAFLMGSGHGANFLNNYLYDGEEIATRGNVIVVTFNYRVGPLGFLSTGDANLPGNYGLRDQHMAIAWVKRNIAAFGGDPNNITLFGESAGGASVSLQTLSPYNKGLIRRAISQSGVALSPWVIQKNPLFWAKKVAEKVGCPVGDAARMAQCLKVTDPRALTLAYKVPLAGLEYPMLHYVGFVPVIDGDFIPADPINLYANAADIDYIAGTNNMDGHIFASIDMPAINKGNKKVTEEDFYKLVSEFTITKGLRGAKTTFDVYTESWAQDPSQENKKKTVVDFETDVLFLVPTEIALAQHRANAKSAKTYAYLFSHPSRMPVYPKWVGADHADDIQYVFGKPFATPTGYRPQDRTVSKAMIAYWTNFAKTGDPNMGDSAVPTHWEPYTTENSGYLEITKKMGSSSMKRSLRTNFLRYWTLTYLALPTVTDQEAT
modifications: not glycosylated (expressed in E. coli); 125I-labelled in the mouse intestine binding experiment
Molecule B1 displayed a Bound in assay [2] of 33 ng/cm. This molecule also displayed a Cholesterol Uptake in assay [3] of 7.32 nmol/g/h.

B2: isolated C-tail of human milk BAL (protein)
chain: ALPTVTDQEATPVPPTGDSEATPVPPTGDSETAPVPPTGDSGAPPVPPTGDSGAPPVPPTGDSGAPPVPPTGDSGAPPVPPTGDSGAPPVPPTGDSGAPPVPPTGDSGAPPVPPTGDAGPPPVPPTGDSGAPPVPPTGDSGAPPVTPTGDSETAPVPPTGDSGAPPVPPTGDSEAAPVPPTDDSK
modifications: about 8 to 10 O-linked oligosaccharides per C-tail molecule, most if not all on threonine (fucose, galactose, galactosamine, glucosamine)
B2: in assay [4], the cholesterol uptake of rat intestine segments from 3H cholesterol oleate is 10 % of control.

B3: native human milk bile salt-activated lipase (enzyme)
chain: AKLGAVYTEGGFVEGVNKKLGLLGDSVDIFKGIPFAAPTKALENPQPHPGWQGTLKAKNFKKRCLQATITQDSTYGDEDCLYLNIWVPQGRKQVSRDLPVMIWIYGGAFLMGSGHGANFLNNYLYDGEEIATRGNVIVVTFNYRVGPLGFLSTGDANLPGNYGLRDQHMAIAWVKRNIAAFGGDPNNITLFGESAGGASVSLQTLSPYNKGLIRRAISQSGVALSPWVIQKNPLFWAKKVAEKVGCPVGDAARMAQCLKVTDPRALTLAYKVPLAGLEYPMLHYVGFVPVIDGDFIPADPINLYANAADIDYIAGTNNMDGHIFASIDMPAINKGNKKVTEEDFYKLVSEFTITKGLRGAKTTFDVYTESWAQDPSQENKKKTVVDFETDVLFLVPTEIALAQHRANAKSAKTYAYLFSHPSRMPVYPKWVGADHADDIQYVFGKPFATPTGYRPQDRTVSKAMIAYWTNFAKTGDPNMGDSAVPTHWEPYTTENSGYLEITKKMGSSSMKRSLRTNFLRYWTLTYLALPTVTDQEATPVPPTGDSEATPVPPTGDSETAPVPPTGDSGAPPVPPTGDSGAPPVPPTGDSGAPPVPPTGDSGAPPVPPTGDSGAPPVPPTGDSGAPPVPPTGDSGAPPVPPTGDAGPPPVPPTGDSGAPPVPPTGDSGAPPVTPTGDSETAPVPPTGDSGAPPVPPTGDSEAAPVPPTDDSKEAQMPAVIRF
modifications: O-linked oligosaccharides in the C-tail, primarily on threonine; 125I-labelled in the mouse intestine binding experiment
B3 displayed a Bound in assay [2] of 384 ng/cm. This molecule had a Cholesterol Uptake in assay [3] of 14.4 nmol/g/h.
